What is called Kd is the free concentration of one partner at which half of the binding sites on the other are occupied at equilibrium, for simple one-to-one binding.

For test [1], the target named is T1, PSP94 of LNCaP prostate cancer cells (membrane-bound on the cell surface); intracellular in permeabilized … (human (endogenous in LNCaP), UniProt P08118 21-114).
T1 construct: the cells were not transfected; source: endogenous, LNCaP cells (on the cell surface; inside permeabilized cells)
T1 sequence (looked up): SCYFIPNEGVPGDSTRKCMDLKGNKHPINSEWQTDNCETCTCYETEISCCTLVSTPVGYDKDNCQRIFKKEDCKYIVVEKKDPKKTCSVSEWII
Put plainly: flow cytometry on cells; competition: LNCaP cells with (80 µg/mL) or without rabbit polyclonal antibody sc-68920 for 15 min on ice, then PAB binders at 10 µg/mL for 30 min; streptavidin-PE. The following applies: one partner purified. For orientation: A flow cytometer gives signals particle by particle.

Test [2] has as its target T2, recombinant HisTag-PSP94 (human prostate secretory protein 94) (human, UniProt P08118 21-114, fluorescent label (in the microscale thermophoresis only)).
T2 construct: prostate secretory protein 94 (PSP94, β-microseminoprotein), human, product of the MSMB gene; The letter has no methods section; the construct may be told in the supplementary file; also called His-PSP94; β-microseminoprotein; not shown: His tag, N-terminal, kept
T2 sequence (looked up): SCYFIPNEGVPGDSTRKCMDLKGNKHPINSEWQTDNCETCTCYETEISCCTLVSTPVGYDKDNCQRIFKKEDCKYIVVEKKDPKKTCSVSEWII
Put plainly: MST; fluorescently labelled HisTag-PSP94 in solution, PAB variants titrated; thermophoresis + T-jump data, NanoTemper software. The following applies: both partners purified.

For another test, the target named is both these PAB proteins. Put plainly: flow cytometry on cells; competition: PAB variants mixed with increasing concentrations of recombinant HisTag-PSP94 and left to bind LNCaP cells for 30 min; streptavidin-PE; binding without PSP94 taken as 100%; pair recombinant PSP94 with PAB.

Values joined by “and” are separate entries in the source; they are usually repeats but may differ in a detail not shown here. Equal values may be shown once. Ends that are not written are not given here.

B1: PAB036 (HisTag-PAB-TolA-AviTag fusion protein) (designed binder)
chain: LAEAKVLANRELDKYGVSDWYKNGINPAHRVRWVKGRIDAILARLP
modifications: not fully specified (N-terminus, C-terminus)
notes: numbers count on: the 46-residue ABD scaffold; positions 20-46 of the ABD scaffold with the 11 randomized positions as selected in PAB036; 46-residue ABD variant linked to a 305-residue TolA spacer with a C-terminal AviTag; also called PAB036 variant; source: E. coli, purified, in vivo biotinylated; not shown: His tag, N-terminal, kept; TolA spacer (helical, 305 amino acids), C-terminal, kept; …
As to B1, in test [1], the “percent inhibition of binding by polyclonal antibody sc-68920 (the pair that is blocked)” value (“percent inhibition of binding” for short) was around 15%. In test [2], the equilibrium dissociation constant (Kd) was 40 nM and 72 nM.

B2: recombinant HisTag-PSP94 (human prostate secretory protein 94) (natural protein)
chain: SCYFIPNEGVPGDSTRKCMDLKGNKHPINSEWQTDNCETCTCYETEISCCTLVSTPVGYDKDNCQRIFKKEDCKYIVVEKKDPKKTCSVSEWII
modifications: fluorescent label (in the microscale thermophoresis only)
As for B2, the percent inhibition of PAB binding to LNCaP cells at 20 µg/mL PSP94 with both these PAB proteins lay in the range of 5 to 10%.

B3: PAB046 (HisTag-PAB-TolA-AviTag fusion protein) (designed binder)
chain: LAEAKVLANRELDKYGVSDRYKNAINRAPAVWWVKRLIDAILAALP
modifications: not fully specified (N-terminus, C-terminus)
notes: numbers count on: the 46-residue ABD scaffold; positions 20-46 of the ABD scaffold with the 11 randomized positions as selected in PAB046; 46-residue ABD variant linked to a 305-residue TolA spacer with a C-terminal AviTag; also called PAB046 variant; source: E. coli, purified, in vivo biotinylated; not shown: His tag, N-terminal, kept; TolA spacer (helical, 305 amino acids), C-terminal, kept; …
Regarding B3, the “percent inhibition of binding” value in test [1] amounted to 30%. Besides, in test [2], the Kd was found to be 49 ± 10 nM.

B4: PAB050 (HisTag-PAB-TolA-AviTag fusion protein) (designed binder)
chain: LAEAKVLANRELDKYGVSDLYKNHINTAWRVAAVKRAIDLILASLP
modifications: not fully specified (N-terminus, C-terminus)
notes: numbers count on: the 46-residue ABD scaffold; positions 20-46 of the ABD scaffold with the 11 randomized positions as selected in PAB050; 46-residue ABD variant linked to a 305-residue TolA spacer with a C-terminal AviTag; also called PAB50; PAB050 variant; source: E. coli, purified, in vivo biotinylated; not shown: His tag, N-terminal, kept; TolA spacer (helical, 305 amino acids), C-terminal, …
As to B4, the “percent inhibition of binding” value in test [1] was 30%. Also, the dissociation constant (Kd) in test [2] is 10 nM and 12 nM and 21 nM.

The record behind these values is PMC4598320, “Novel binders derived from an albumin-binding domain scaffold targeting human prostate secretory protein 94 (PSP94)” (Protein & Cell, 2015).
